Assay [1] concerns the target full-length 20S proteasome core particle, β-subunit T1A inactive variant (M. tuberculosis H37Rv) (UniProt P9WHU1). Kind of assay: negative stain EM.
For assay [2] the target is unchanged. Kind of assay: cryo-EM structure.

Where only a bound is given, the exact number is not on record here.

As for “covalent dimer of C-terminally truncated Bpa and full-length Bpa (BpaΔC-Bpa) (from UniProt P9WKX3)”, in assay [1], the percent of proteasomes singly capped worked out at 27% and the percent of proteasomes uncapped came to 73%.
In assay [2], “bacterial proteasome activator Bpa, full-length, wild-type (from UniProt P9WKX3 1-174) (natural protein)” came in with a percent of core particles capped by Bpa on both ends of more than 90%. In assay [1], this substance yielded a percent of proteasomes doubly capped of more than 80% and a percent of proteasomes not associated with Bpa of less than 1%.

Source of the values: publication PMC11953334, “Substrates bind to residues lining the ring of asymmetrically engaged bacterial proteasome activator Bpa” (Nature Communications, 2025).
